Measured values taken from patent publication US20260201008A1, “SECRETIN-DERIVED GLP1R SELECTIVE AGONISTS” (GUBRA A/S, priority 2023, published 2026).
Each block holds one binder with its values, some of them ahead of it. Square brackets hold non-standard residues; d marks the D form. Ends that are not written are not given here. Aib = CC(C)(N)C(=O)O

Experiments:
[1] = biological target: human GLP-1 receptor (hGLP1R) (human, UniProt P43220 24-463); experiment: cell-based or functional assay
[2] = biological target: human secretin receptor (hSCTR) (human, UniProt P47872 23-440); experiment: cell-based or functional assay
human secretin receptor (hSCTR), sequence (P47872 23-440): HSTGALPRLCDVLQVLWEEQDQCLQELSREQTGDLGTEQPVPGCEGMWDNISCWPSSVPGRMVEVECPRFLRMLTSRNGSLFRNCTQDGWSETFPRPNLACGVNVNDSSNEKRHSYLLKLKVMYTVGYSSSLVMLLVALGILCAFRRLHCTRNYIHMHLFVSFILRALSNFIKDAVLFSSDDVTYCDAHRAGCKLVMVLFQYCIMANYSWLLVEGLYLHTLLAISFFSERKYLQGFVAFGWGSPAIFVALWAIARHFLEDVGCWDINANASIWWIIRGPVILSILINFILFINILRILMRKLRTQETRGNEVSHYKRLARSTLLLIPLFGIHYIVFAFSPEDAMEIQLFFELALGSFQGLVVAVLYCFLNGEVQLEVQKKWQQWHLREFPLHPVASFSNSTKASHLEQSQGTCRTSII

pEC50 hGLPR1 [1]: 8.6 -log M
pEC50 hSCTR [2]: 5.3 -log M
B6: SEQ ID NO: 124 (peptide)
peptide: H[Aib]EGTFTSDPSRLLEGAALQRFIQWLV-NH2
modifications: N-terminus assumed
SMILES: CC[C@H](C)[C@H](NC(=O)[C@H](Cc1ccccc1)NC(=O)[C@H](CCCNC(=N)N)NC(=O)[C@H](CCC(N)=O)NC(=O)[C@H](CC(C)C)NC(=O)[C@H](C)NC(=O)[C@H](C)NC(=O)CNC(=O)[C@H](CCC(=O)O)NC(=O)[C@H](CC(C)C)NC(=O)[C@H](CC(C)C)NC(=O)[C@H](CCCNC(=N)N)NC(=O)[C@H](CO)NC(=O)[C@@H]1CCCN1C(=O)[C@H](CC(=O)O)NC(=O)[C@H](CO)NC(=O)[C@@H](NC(=O)[C@H](Cc1ccccc1)NC(=O)[C@@H](NC(=O)CNC(=O)[C@H](CCC(=O)O)NC(=O)C(C)(C)NC(=O)[C@@H](N)Cc1c[nH]cn1)[C@@H](C)O)[C@@H](C)O)C(=O)N[C@@H](CCC(N)=O)C(=O)N[C@@H](Cc1c[nH]c2ccccc12)C(=O)N[C@@H](CC(C)C)C(=O)N[C@H](C(N)=O)C(C)C

pEC50 hGLPR1 [1]: 8.4 -log M
pEC50 hSCTR [2]: 5 -log M
B7: SEQ ID NO: 125 (peptide)
peptide: H[Aib]EGTFTSDPS[Aib]LLEGAALQRFIQWLV-NH2
modifications: N-terminus assumed
SMILES: CC[C@H](C)[C@H](NC(=O)[C@H](Cc1ccccc1)NC(=O)[C@H](CCCNC(=N)N)NC(=O)[C@H](CCC(N)=O)NC(=O)[C@H](CC(C)C)NC(=O)[C@H](C)NC(=O)[C@H](C)NC(=O)CNC(=O)[C@H](CCC(=O)O)NC(=O)[C@H](CC(C)C)NC(=O)[C@H](CC(C)C)NC(=O)C(C)(C)NC(=O)[C@H](CO)NC(=O)[C@@H]1CCCN1C(=O)[C@H](CC(=O)O)NC(=O)[C@H](CO)NC(=O)[C@@H](NC(=O)[C@H](Cc1ccccc1)NC(=O)[C@@H](NC(=O)CNC(=O)[C@H](CCC(=O)O)NC(=O)C(C)(C)NC(=O)[C@@H](N)Cc1c[nH]cn1)[C@@H](C)O)[C@@H](C)O)C(=O)N[C@@H](CCC(N)=O)C(=O)N[C@@H](Cc1c[nH]c2ccccc12)C(=O)N[C@@H](CC(C)C)C(=O)N[C@H](C(N)=O)C(C)C

pEC50 hGLPR1 [1]: 10.5 -log M
pEC50 hSCTR [2]: 6.5 -log M
B8: SEQ ID NO: 13 (peptide)
peptide: H[Aib]EGTFTSDVSFLKE[Aib]AATQRFLEHLV-NH2
modifications: not fully specified (residue 14)

pEC50 hGLPR1 [1]: 8.1 -log M
pEC50 hSCTR [2]: 5.4 -log M
B10: SEQ ID NO: 127 (peptide)
peptide: H[Aib]EGTFTSDPSWLLEGAALQRFIQWLV-NH2
modifications: N-terminus assumed
SMILES: CC[C@H](C)[C@H](NC(=O)[C@H](Cc1ccccc1)NC(=O)[C@H](CCCNC(=N)N)NC(=O)[C@H](CCC(N)=O)NC(=O)[C@H](CC(C)C)NC(=O)[C@H](C)NC(=O)[C@H](C)NC(=O)CNC(=O)[C@H](CCC(=O)O)NC(=O)[C@H](CC(C)C)NC(=O)[C@H](CC(C)C)NC(=O)[C@H](Cc1c[nH]c2ccccc12)NC(=O)[C@H](CO)NC(=O)[C@@H]1CCCN1C(=O)[C@H](CC(=O)O)NC(=O)[C@H](CO)NC(=O)[C@@H](NC(=O)[C@H](Cc1ccccc1)NC(=O)[C@@H](NC(=O)CNC(=O)[C@H](CCC(=O)O)NC(=O)C(C)(C)NC(=O)[C@@H](N)Cc1c[nH]cn1)[C@@H](C)O)[C@@H](C)O)C(=O)N[C@@H](CCC(N)=O)C(=O)N[C@@H](Cc1c[nH]c2ccccc12)C(=O)N[C@@H](CC(C)C)C(=O)N[C@H](C(N)=O)C(C)C

Further lines, the binder ahead of its results:

B1: SEQ ID NO: 119 (peptide)
peptide: H[Aib]EGTFTSDISELLEGAALQRFIQWLV-NH2
modifications: N-terminus assumed
SMILES: CC[C@H](C)[C@H](NC(=O)[C@H](Cc1ccccc1)NC(=O)[C@H](CCCNC(=N)N)NC(=O)[C@H](CCC(N)=O)NC(=O)[C@H](CC(C)C)NC(=O)[C@H](C)NC(=O)[C@H](C)NC(=O)CNC(=O)[C@H](CCC(=O)O)NC(=O)[C@H](CC(C)C)NC(=O)[C@H](CC(C)C)NC(=O)[C@H](CCC(=O)O)NC(=O)[C@H](CO)NC(=O)[C@@H](NC(=O)[C@H](CC(=O)O)NC(=O)[C@H](CO)NC(=O)[C@@H](NC(=O)[C@H](Cc1ccccc1)NC(=O)[C@@H](NC(=O)CNC(=O)[C@H](CCC(=O)O)NC(=O)C(C)(C)NC(=O)[C@@H](N)Cc1c[nH]cn1)[C@@H](C)O)[C@@H](C)O)[C@@H](C)CC)C(=O)N[C@@H](CCC(N)=O)C(=O)N[C@@H](Cc1c[nH]c2ccccc12)C(=O)N[C@@H](CC(C)C)C(=O)N[C@H](C(N)=O)C(C)C
pEC50 hGLPR1 [1]: 10.6 -log M
pEC50 hSCTR [2]: 7.3 -log M

B2: SEQ ID NO: 120 (peptide)
peptide: H[Aib]EGTFTSDISGLLEGAALQRFIQWLV-NH2
modifications: N-terminus assumed
SMILES: CC[C@H](C)[C@H](NC(=O)[C@H](CC(=O)O)NC(=O)[C@H](CO)NC(=O)[C@@H](NC(=O)[C@H](Cc1ccccc1)NC(=O)[C@@H](NC(=O)CNC(=O)[C@H](CCC(=O)O)NC(=O)C(C)(C)NC(=O)[C@@H](N)Cc1c[nH]cn1)[C@@H](C)O)[C@@H](C)O)C(=O)N[C@@H](CO)C(=O)NCC(=O)N[C@@H](CC(C)C)C(=O)N[C@@H](CC(C)C)C(=O)N[C@@H](CCC(=O)O)C(=O)NCC(=O)N[C@@H](C)C(=O)N[C@@H](C)C(=O)N[C@@H](CC(C)C)C(=O)N[C@@H](CCC(N)=O)C(=O)N[C@@H](CCCNC(=N)N)C(=O)N[C@@H](Cc1ccccc1)C(=O)N[C@H](C(=O)N[C@@H](CCC(N)=O)C(=O)N[C@@H](Cc1c[nH]c2ccccc12)C(=O)N[C@@H](CC(C)C)C(=O)N[C@H](C(N)=O)C(C)C)[C@@H](C)CC
pEC50 hGLPR1 [1]: 10.3 -log M
pEC50 hSCTR [2]: 6.7 -log M

B3: SEQ ID NO: 121 (peptide)
peptide: H[Aib]EGTFTSDPSYLKEEA[Aib]LQRFLEHLV-NH2
modifications: not fully specified (residue 14)
pEC50 hGLPR1 [1]: 8.6 -log M
pEC50 hSCTR [2]: 4.4 -log M

B4: SEQ ID NO: 122 (peptide)
peptide: H[Aib]EGTFTSDPSELLEGAALQRFIQWLV-NH2
modifications: N-terminus assumed
SMILES: CC[C@H](C)[C@H](NC(=O)[C@H](Cc1ccccc1)NC(=O)[C@H](CCCNC(=N)N)NC(=O)[C@H](CCC(N)=O)NC(=O)[C@H](CC(C)C)NC(=O)[C@H](C)NC(=O)[C@H](C)NC(=O)CNC(=O)[C@H](CCC(=O)O)NC(=O)[C@H](CC(C)C)NC(=O)[C@H](CC(C)C)NC(=O)[C@H](CCC(=O)O)NC(=O)[C@H](CO)NC(=O)[C@@H]1CCCN1C(=O)[C@H](CC(=O)O)NC(=O)[C@H](CO)NC(=O)[C@@H](NC(=O)[C@H](Cc1ccccc1)NC(=O)[C@@H](NC(=O)CNC(=O)[C@H](CCC(=O)O)NC(=O)C(C)(C)NC(=O)[C@@H](N)Cc1c[nH]cn1)[C@@H](C)O)[C@@H](C)O)C(=O)N[C@@H](CCC(N)=O)C(=O)N[C@@H](Cc1c[nH]c2ccccc12)C(=O)N[C@@H](CC(C)C)C(=O)N[C@H](C(N)=O)C(C)C
pEC50 hGLPR1 [1]: 8.2 -log M
pEC50 hSCTR [2]: 5.3 -log M

B5: SEQ ID NO: 123 (peptide)
peptide: H[Aib]EGTFTSDPSGLLEGAALQRFIQWLV-NH2
modifications: N-terminus assumed
SMILES: CC[C@H](C)[C@H](NC(=O)[C@H](Cc1ccccc1)NC(=O)[C@H](CCCNC(=N)N)NC(=O)[C@H](CCC(N)=O)NC(=O)[C@H](CC(C)C)NC(=O)[C@H](C)NC(=O)[C@H](C)NC(=O)CNC(=O)[C@H](CCC(=O)O)NC(=O)[C@H](CC(C)C)NC(=O)[C@H](CC(C)C)NC(=O)CNC(=O)[C@H](CO)NC(=O)[C@@H]1CCCN1C(=O)[C@H](CC(=O)O)NC(=O)[C@H](CO)NC(=O)[C@@H](NC(=O)[C@H](Cc1ccccc1)NC(=O)[C@@H](NC(=O)CNC(=O)[C@H](CCC(=O)O)NC(=O)C(C)(C)NC(=O)[C@@H](N)Cc1c[nH]cn1)[C@@H](C)O)[C@@H](C)O)C(=O)N[C@@H](CCC(N)=O)C(=O)N[C@@H](Cc1c[nH]c2ccccc12)C(=O)N[C@@H](CC(C)C)C(=O)N[C@H](C(N)=O)C(C)C
pEC50 hGLPR1 [1]: 8 -log M
pEC50 hSCTR [2]: 5.2 -log M

B9: SEQ ID NO: 126 (peptide)
peptide: H[Aib]EGTFTSDPSFLLEGAALQRFIQWLV-NH2
modifications: N-terminus assumed
SMILES: CC[C@H](C)[C@H](NC(=O)[C@H](Cc1ccccc1)NC(=O)[C@H](CCCNC(=N)N)NC(=O)[C@H](CCC(N)=O)NC(=O)[C@H](CC(C)C)NC(=O)[C@H](C)NC(=O)[C@H](C)NC(=O)CNC(=O)[C@H](CCC(=O)O)NC(=O)[C@H](CC(C)C)NC(=O)[C@H](CC(C)C)NC(=O)[C@H](Cc1ccccc1)NC(=O)[C@H](CO)NC(=O)[C@@H]1CCCN1C(=O)[C@H](CC(=O)O)NC(=O)[C@H](CO)NC(=O)[C@@H](NC(=O)[C@H](Cc1ccccc1)NC(=O)[C@@H](NC(=O)CNC(=O)[C@H](CCC(=O)O)NC(=O)C(C)(C)NC(=O)[C@@H](N)Cc1c[nH]cn1)[C@@H](C)O)[C@@H](C)O)C(=O)N[C@@H](CCC(N)=O)C(=O)N[C@@H](Cc1c[nH]c2ccccc12)C(=O)N[C@@H](CC(C)C)C(=O)N[C@H](C(N)=O)C(C)C
pEC50 hGLPR1 [1]: 8.1 -log M
pEC50 hSCTR [2]: 5.7 -log M

B11: SEQ ID NO: 128 (peptide)
peptide: H[Aib]EGTFTSDPSYLLEGAALQRFIQWLV-NH2
modifications: N-terminus assumed
SMILES: CC[C@H](C)[C@H](NC(=O)[C@H](Cc1ccccc1)NC(=O)[C@H](CCCNC(=N)N)NC(=O)[C@H](CCC(N)=O)NC(=O)[C@H](CC(C)C)NC(=O)[C@H](C)NC(=O)[C@H](C)NC(=O)CNC(=O)[C@H](CCC(=O)O)NC(=O)[C@H](CC(C)C)NC(=O)[C@H](CC(C)C)NC(=O)[C@H](Cc1ccc(O)cc1)NC(=O)[C@H](CO)NC(=O)[C@@H]1CCCN1C(=O)[C@H](CC(=O)O)NC(=O)[C@H](CO)NC(=O)[C@@H](NC(=O)[C@H](Cc1ccccc1)NC(=O)[C@@H](NC(=O)CNC(=O)[C@H](CCC(=O)O)NC(=O)C(C)(C)NC(=O)[C@@H](N)Cc1c[nH]cn1)[C@@H](C)O)[C@@H](C)O)C(=O)N[C@@H](CCC(N)=O)C(=O)N[C@@H](Cc1c[nH]c2ccccc12)C(=O)N[C@@H](CC(C)C)C(=O)N[C@H](C(N)=O)C(C)C
pEC50 hGLPR1 [1]: 7.8 -log M
pEC50 hSCTR [2]: 4.7 -log M
